Results taken from patent US9365620B2, “Methods for treating pain” (NoNO NC., priority 2008, dated 2016).

Key:
N-type calcium channels = N-type calcium channels (Mus musculus, UniProt O55017); assay type: cell-based, Swiss mice
IL-8RB = target: T1, IL-8RB (Homo sapiens, UniProt P25025); test: Competitive binding assay, IL-8/IL-8RB; conditions: peptide at 10 μM
T1 sequence (P25025 1-360): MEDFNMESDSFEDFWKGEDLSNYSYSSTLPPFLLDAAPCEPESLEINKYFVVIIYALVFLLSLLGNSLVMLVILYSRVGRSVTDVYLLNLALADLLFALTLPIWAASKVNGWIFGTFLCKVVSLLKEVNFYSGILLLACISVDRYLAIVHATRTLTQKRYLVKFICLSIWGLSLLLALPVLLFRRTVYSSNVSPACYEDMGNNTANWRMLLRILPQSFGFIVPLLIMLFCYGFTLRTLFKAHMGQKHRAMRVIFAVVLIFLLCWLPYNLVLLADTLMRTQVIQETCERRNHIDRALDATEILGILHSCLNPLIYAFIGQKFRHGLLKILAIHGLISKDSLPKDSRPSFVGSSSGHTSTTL

Sequence: FGRKKRRQRRRKLSSIESDV (synthetic 1993 peptide F-Tat-NR2B9c) [Peptide 1993, variant in which the Y residue at position 1 of Tat-NR2B9c was mutated to F]
- Ca^2+ current shown as a percentage (N-type calcium channels): 91+/−1.6%
- inhibition of N-type calcium channel activity (N-type calcium channels): no significant inhibition

Sequence: YGRKKRRQRRRKLSSIESDV [Tat-NR2B9c] (Synthetic peptide Tat-NR2B9c) [chimeric peptide of a standard tat peptide and …]
- inhibition of IL-8/IL-8RB (IL-8RB): 80%
- Ca^2+ current shown as a percentage (N-type calcium channels): 68+/−1.7%
- frequency (use) dependence of block of Ca^2+ currents (N-type calcium channels): not frequency dependent
- voltage dependence of inhibition of Ca^2+ current (N-type calcium channels): voltage-independent manner
